Sequences and labels used below:
B1: Twister Ribozyme (parent)
chain: AACACUGCCAAUGCCGGUCCCAAGCCCGGAUAAAAGUGGAGGGGGCGG

In this data set the parent is B1. Kind of data set: self-cleavage, relative activity (ratio to wild type); higher = more cleavage; co-transcriptional.
As to AACACUGCCAAUGCCGGUCCCAAACCCGGAUAAGAGUGGAGGGGGCGG [G24A A34G], the self-cleavage stood at 0.0576.

As to AACACCGCCAAUGCCGGUCUCAAGCCCGGAUAAAAGUGGAGGGGGCGG [U6C C20U], the self-cleavage worked out at 0.169. As for AACACUCCCAAUGCCGGUCCCAAGCCCGGAUAAAAGUGGAGCGGGCGG [G7C G42C], the figure is 0.0454.

ACCACUGCCAAUGCCGGUCCCAAGCCCGGAUAAAAGCGGAGGGGGCGG [A2C U37C]: the self-cleavage is 0.0354.

In the case of CACACUGCCAAUACCGGUCCCAAGCCCGGAUAAAAGUGGAGGGGGCGG [A1C G13A], the self-cleavage came to 0.12. In the case of AACACUGCCAAUGCCGGUCCCAACCCCGGAUAAAAGUGGAGGGGCCGG [G24C G45C], the self-cleavage was 0.0828. For AACACUGCCAAUUCCGGUCCCAAGCCCGGACAAAAGUGGAGGGGGCGG [G13U U31C] the value was 0.639; for AACACUGCGAAUGCCGGUCCCAAGCCCGGAUAAAAGGGGAGGGGGCGG [C9G U37G], 0.327; for AACACUGCCAAUGCCGGUCCGAAGCCGGGAUAAAAGUGGAGGGGGCGG [C21G C27G], 0.138. Regarding AACACUGCCAAUGCCGGUCCCAAGCCCGAAUAAAAGUGAAGGGGGCGG [G29A G39A], the self-cleavage is 0.381. For AACACUGCCAAUGCCGGUACCAAGCCCGUAUAAAAGUGGAGGGGGCGG [C19A G29U] the value was 0.207. As for AACAGUGCCAAUGCCGGUCGCAAGCCCGGAUAAAAGUGGAGGGGGCGG [C5G C20G], the figure is 0.0308. For AACACCGCCAAUGCCGGUCCCAAACCCGGAUAAAAGUGGAGGGGGCGG [U6C G24A] the value was 0.0737; for AACACUGCCAUUGCCGGUCCCAAGCCCGGGUAAAAGUGGAGGGGGCGG [A11U A30G], 1.11. As to AAAACUGCCAAUGCCGGUCCCAAGCCCGGUUAAAAGUGGAGGGGGCGG [C3A A30U], the self-cleavage was 0.184. As to AACACUGCCAAUGCCGGCCCCAAGCCCGGAUAAAAGUGGAGGGUGCGG [U18C G44U], the self-cleavage was found to be 0.498. For the variant AACACUGCCCAUGCCGGUCCCAAGCCGGGAUAAAAGUGGAGGGGGCGG [A10C C27G], the self-cleavage worked out at 0.0988. For AACACUGCCAAUGCCGGUCCCAAGCCCGGAUUAAAGAGGAGGGGGCGG [A32U U37A] the value was 0.74.

On to AACACUGGCAAUGCCGGUCCCAAGCCCGGAUAAGAGUGGAGGGGGCGG [C8G A34G], for which the self-cleavage stood at 0.276. As for AACACGGCCAAGGCCGGUCCCAAGCCCGGAUAAAAGUGGAGGGGGCGG [U6G U12G], the figure is 0.343; as for AACACUGCCAAUGCCGGUCCCAGGCCUGGAUAAAAGUGGAGGGGGCGG [A23G C27U], 0.14; as for AACACUGCCAAUGCCGGCCCCAAGCCCGGAUAAAAGUGGAUGGGGCGG [U18C G41U], 0.13. As for AACAGUGCCAAUGCCCGUCCCAAGCCCGGAUAAAAGUGGAGGGGGCGG [C5G G16C], the figure is 0.0784; as for AACACUGCAAAUGCCGGUCCCAAGCCCGGAUAAAAGUGGAGGGGGCGG [C9A], 0.776. With AACACUGCCAAUGCCGCUCCCAAGCCCGGAUAAAAGUGGAGGGGGCCG [G17C G47C], the self-cleavage came out at 0.142. With AACACUGCCAAGGCCGGUCCCAAGCCCGGAUAAAAGUGGAGGGCGCGG [U12G G44C], the self-cleavage was 0.681. Take AACACUGCCAAUGCCGGUCCAAAUCCCGGAUAAAAGUGGAGGGGGCGG [C21A G24U]: the self-cleavage came to 0.0879. As to AACACUGCCAAUGCCGGUCCCAAGCACAGAUAAAAGUGGAGGGGGCGG [C26A G28A], the self-cleavage is 0.168.

On to AACACUGCCAAUGCCCGUCCUAAGCCCGGAUAAAAGUGGAGGGGGCGG [G16C C21U], for which the self-cleavage came out at 0.0834. With AACACUGCCAACUCCGGUCCCAAGCCCGGAUAAAAGUGGAGGGGGCGG [U12C G13U], the self-cleavage turned out to be 0.659. As for AACACUGCUAAUGCCGGUCCCAAGCCCGGAUAAAAGUGGAGGGGGAGG [C9U C46A], the figure is 0.549; as for ACCACUGCCAAUGCCGGUCCCAAGCCCGGAUAAAAGUGGAGGGGGCUG [A2C G47U], 0.0503; as for AACACUGCCAAUGCCGGUCCCAAGCCUGGAUAACAGUGGAGGGGGCGG [C27U A34C], 0.0865. For AACACUGCCAAUGCCGGUCCCAAGCCUGGAUAAUAGUGGAGGGGGCGG [C27U A34U] the value was 0.567; for AACACUGCGAAUCCCGGUCCCAAGCCCGGAUAAAAGUGGAGGGGGCGG [C9G G13C], 0.876. For AACACUGCCAAUGCAGGUCCCAGGCCCGGAUAAAAGUGGAGGGGGCGG [C15A A23G] the value was 0.141; for AACACUGCCAAUGCCAGUCGCAAGCCCGGAUAAAAGUGGAGGGGGCGG [G16A C20G], 0.158; for AAUACUGCCAAUGCCGGUCCCAAGCCCGGCUAAAAGUGGAGGGGGCGG [C3U A30C], 0.335. For AACAGUGCCAAUGCCGGUCCCAGGCCCGGAUAAAAGUGGAGGGGGCGG [C5G A23G], the self-cleavage turned out to be 0.133. Consider AACACUGCCUAUGCCGGUCCCAAGCCCGGAUUAAAGUGGAGGGGGCGG [A10U A32U], for which the self-cleavage stood at 0.842. Regarding AACACUGCCAAUGCCGGUCCGAAGCCCGGAUAAAUGUGGAGGGGGCGG [C21G A35U], the self-cleavage is 0.0529. For AACCCUGCCAAUGCCGGUCCCAAGCCCGGAUAAAACUGGAGGGGGCGG [A4C G36C], the self-cleavage worked out at 0.0766. For AACACUGCCAAUGCCGGUCCCAAGCCCGGAUAAGAGUGGAGGGCGCGG [A34G G44C] the value was 0.783.

On to GAGACUGCCAAUGCCGGUCCCAAGCCCGGAUAAAAGUGGAGGGGGCGG [A1G C3G], for which the self-cleavage worked out at 0.274. As for AACAUUGCCAAUGCCGGUCCCAAGCCCGGAUAAAAGUGGAGCGGGCGG [C5U G42C], the self-cleavage was determined as 0.287. For AACACUGCCAAUGCCGGUCUCAAUCCCGGAUAAAAGUGGAGGGGGCGG [C20U G24U] the value was 0.0768; for AACACUGCCAAUGCCGGUCUCAACCCCGGAUAAAAGUGGAGGGGGCGG [C20U G24C], 0.0962.

For the variant AAAACUGCCAAUGCCGGUCCCAAGCCCGGAUAAAGGUGGAGGGGGCGG [C3A A35G], the self-cleavage was 0.222. As for AACACUGGCAAUGCCGGUCCCAGGCCCGGAUAAAAGUGGAGGGGGCGG [C8G A23G], the figure is 0.0516. For AACACUGCCGAUGCCGGUCCCAAGCCCGGAUAAAAGAGGAGGGGGCGG [A10G U37A] the value was 0.805; for AACACUGCCAAUGCCCGUCCCAAGCCCGGAUUAAAGUGGAGGGGGCGG [G16C A32U], 0.456; for AACACUGCCAAUGCCCGUCCCAAGCCCGGAUCAAAGUGGAGGGGGCGG [G16C A32C], 0.536. As for CACAGUGCCAAUGCCGGUCCCAAGCCCGGAUAAAAGUGGAGGGGGCGG [A1C C5G], the figure is 0.227. Regarding AACACUGCCAAUGCCGGUCCCAAGCCCGGACAAAAGUGUAGGGGGCGG [U31C G39U], the self-cleavage turned out to be 0.19.

The values above are taken from the RNAGym collection of RNA variant scans (doi:10.7554/elife.80360).
